The record followed here is patent US20150010525A1, “Catalytic Tagging System to Study Macro-Molecular Interactions Using Engineered Ubiquitin Ligase and Ubiquitin-Like Proteins to Facilitate Substrate Identification” (THE REGENTS OF THE UNIVERSITY OF CALIFORNIA, priority 2012, published 2015).

Experiment [1] addresses T1, cIAP1 (Homo sapiens, UniProt P61081+Q13490).
T1 construct: cIAP1(ΔR) (residues 1-555); GST (N, cleaved yes); made in house; host or cells: E. coli BL21 (DE3)
In words: SILAC mass spectrometry screen for cIAP1 substrates with NEDDylator^cIAP1 in apoptotic Jurkat cell lysate. The experiment is classed as biochemical. The note with it: Light lysate with NEDDylator^cIAP1, Heavy lysate with Ubc12. On the procedure:
Jurkat cells were grown in media containing either light or heavy isotopes of lysine and arginine and induced to undergo apoptosis with STS. Light cell extracts were incubated with the respective catalytic tagging system for each of the two IAPs and the heavy extracts labeled only with the wild-type NEDD8 E2, Ubc12. […] 100 mg ^13C6^15N2 L-Lys.2HCl and 86 mg ^13C6 L-Arg.HCl (Cambridge Isotope) were added to the same amount of medium to generate the “Heavy” medium. Jurkat cells were cultured separately in “Light” or “Heavy” medium for 7 days to allow for thorough isotope incorporation. For IAP substrate identification, 400 million cells were treated with 2 μM STS for 4 hours, harvested, lysed in M-PER mammalian protein extraction buffer (Thermo/Pierce) in the presence of protease inhibitors (100× ProteoBlock cocktail, Fermentas) and mixed with cell lysate prepared from 400 million untreated cells. […] Purified NEDDylated proteins were trypsinized and analyzed with tandem mass spectrometry (LC-MS/MS).
For SILAC experiments, Jurkat cells were cultured separately in “Light” (supplemented with regular Lys and Arg) or “Heavy” (supplemented with ^13C6^15N2 Lys and ^13C6 Arg) medium for 7 days to allow for thorough isotope incorporation. Apoptotic “Light” and “Heavy” cell extracts were prepared individually. The lysates were cleared by spinning and then diluted in 50 mM HEPES pH 7.4, 150 mM NaCl to 5 mg/ml and supplemented with 5 mM ATP, 10 mM MgCl2. Endogenous NEDD8 E1 is cell lysate was used to catalyze the reaction. HB-NEDD8 was added to both lysate at mass ratio 1:500; the catalytic tagging system was added to the “Light” lysate at mass ratio 1:1000. Equal molar of Ubc12 was added to the “Heavy” lysate. […] NEDDylated proteins were separated by one-dimensional SDS-PAGE, and trypsinized for LC-MS/MS analysis.
For liquid chromatography—Tandem mass spectrometry (LC-MS/MS) analysis, the tryptic peptides were first desalted and concentrated with a C18 Ziptip (Millipore). LC-MS/MS was carried out by reverse phase LC interfaced with a LTQ-Orbitrap (ThermoFisher Scientific) hybrid mass spectrometer. A nanoflow HPLC (NanoAcquity UPLC system, Waters Corporation) was equipped with a trap column (180 μm×20 mm, 5 μm SymmetryC18, from Waters) and an analytical column (100 μm×100 mm, 1.7 μm BEH130C18, from Waters). Peptides were eluted over a linear gradient from 2% solvent A (0.1% formic acid in water) to 35% solvent B (0.1% formic acid in acetonitrile) at 350 nL/min over 35 min. MS and MS/MS spectra were acquired in a data-dependent mode with MS spectra acquired in the Orbitrap at 30,000 resolving power and 6 CID MS/MS spectra acquired per MS in the LTQ linear ion trap. Dynamic exclusion was set at 90 seconds to prevent repeated MS/MS on the same precursor ion.
The identified peptides were searched against a random decoy protein database for evaluating the false positive rates. […] The decoy peptides were removed from the data. Protein IDs were assigned only when at least two unique peptides were identified from the same protein. For SILAC experiment, Light/Heavy ratios for the identified peptides were calculated, using ProteinProspector. The media Light/Heavy ratios of all the peptides identified for each protein were used to represent the Light/Heavy ratio of the protein.

Experiment [2] deals with HeLa cells. Nature of the experiment: Cell viability by CellTiter-Glo after STS treatment. The class given is cell-based. The note with it: 24 hours after transfection, STS 2 hours. On the procedure:
FIG. 13 illustrates functional studies of PGAM5 in cells. (A) PGAM5(Δ24) binds XIAP and cIAP1 in vivo. On the left, HEK293 cells were cotransfected with Flag-cIAP1 and PGAM5(FL)-Myc or PGAM5(Δ24)-Myc. Total cell lysates were analyzed by immune-blotting with anti-Flag and anti-Myc antibodies (bottom two panels). Anti-Myc immune-precipitates (IP) were subjected to immunoblot analysis using anti-Myc and anti-Flag antibodies (top two panels). On the right, PGAM5(Δ24)-Myc was transiently expressed in HEK293 cells. 36 hours after transfection, cells were lysed and subjected for Immuno-precipitation with either anti-Myc antibody or an isotype control antibody (mouse IgG). Proteins in the whole cell lysate (bottom three panels) and proteins that bind to the antibody conjugated sepharose beads (top three panels) were assayed with immunoblotting. […] 24 hours after transfection, cell viability was measured by Annexin V staining. […] Error bars represent SEM calculated from triplicate experiments. […] Cell viability is then immediately measured by CellTiter-Glo luminescent assay. […] PGAM5 levels are analyzed with anti-Myc immune-blotting before STS treatment. Error bars represent SEM calculated from triplicate samples.
HeLa cells were plated in 96 well plates and transfected with either empty vector or the PGAM5 construct. […] Luminescent signals were read using a SpectraMax (Molecular Devices) plate reader.
For orientation: ATP-based viability assays read luminescence as a measure of living cells.

T1 sequence (Q13490+P61081 fused): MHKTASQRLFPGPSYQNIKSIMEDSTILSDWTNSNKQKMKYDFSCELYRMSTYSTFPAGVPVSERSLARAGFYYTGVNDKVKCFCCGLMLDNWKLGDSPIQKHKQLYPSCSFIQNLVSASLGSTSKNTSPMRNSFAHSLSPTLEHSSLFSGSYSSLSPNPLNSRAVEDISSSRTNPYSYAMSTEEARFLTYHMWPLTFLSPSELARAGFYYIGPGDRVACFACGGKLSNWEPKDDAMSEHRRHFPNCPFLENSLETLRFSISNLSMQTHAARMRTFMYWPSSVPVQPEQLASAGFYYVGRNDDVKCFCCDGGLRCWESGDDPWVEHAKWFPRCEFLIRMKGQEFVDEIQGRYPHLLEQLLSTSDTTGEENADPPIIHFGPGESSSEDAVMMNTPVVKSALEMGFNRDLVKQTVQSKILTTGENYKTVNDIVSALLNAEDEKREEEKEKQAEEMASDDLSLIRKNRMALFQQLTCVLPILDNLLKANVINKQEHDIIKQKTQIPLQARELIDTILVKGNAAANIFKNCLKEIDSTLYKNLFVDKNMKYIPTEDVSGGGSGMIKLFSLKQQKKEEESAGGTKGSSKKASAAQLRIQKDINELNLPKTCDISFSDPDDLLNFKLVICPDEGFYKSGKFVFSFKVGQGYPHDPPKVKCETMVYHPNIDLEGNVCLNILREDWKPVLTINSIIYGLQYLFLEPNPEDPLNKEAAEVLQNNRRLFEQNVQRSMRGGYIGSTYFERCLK

B1: Serine/threonine-protein phosphatase PGAM5, mitochondrial: phosphoglycerate mutase family member 5, dimeric protein phosphatase (protein, UniProt Q96HS1 1-289, looked up)
chain: MAFRQALQLAACGLAGGSAAVLFSAVAVGKPRAGGDAEPRPAEPPAWAGGARPGPGVWDPNWDRREPLSLINVRKRNVESGEEELASKLDHYKAKATRHIFLIRHSQYHVDGSLEKDRTLTPLGREQAELTGLRLASLGLKFNKIVHSSMTRAIETTDIISRHLPGVCKVSTDLLREGAPIEPDPPVSHWKPEAVQYYEDGARIEAAFRNYIHRADARQEEDSYEIFICHANVIRYIVCRALQFPPEGWLRLSLNNGSITHLVIRPNGRVALRTLGDTGFMPPDKITRS
modifications: full-length
notes: phosphoglycerate mutase family member 5, dimeric protein phosphatase
For B1, in experiment [1], the “L/H (Light/Heavy ratio)” value stood at 23.7. In addition, the “sensitization to apoptosis inducer STS” value in experiment [2] was “sensitized cells to the apoptosis inducer STS”.
